Earlier results on one substance are cited in publication PMC4059559.

The term pKa denotes the pH at which an ionisable group is half protonated.

One series has as its target His152 (UniProt position 152, WFCPCHGSHYD). The series is described as follows: other.
The next series addresses His131 (UniProt position 131, WGVCTHLGCVP). The series is described as follows: other.
The mark [1] stands for this setting: oxidised ISP (ISPox), isolated protein.

For the substance “Rieske iron-sulfur protein (ISP) of the cytochrome bc1 complex, isolated (Rhodobacter sphaeroides)”, the pKa with His152 (setting [1]) is reported as around 7.6; in the series with His152 (reduced ISP (ISPH)) it was ~12–13; in the series with His131 (setting [1]), around 9.6; with His131 (reduced ISP (ISPH)) it was ~12–13.
